Here are results for 40 sequences from the nanobody polyreactivity screen of Harvey et al. (2022).

The nature of the data set: yeast display, Sf9 membrane polyspecificity reagent, FACS + sequencing; frameworks hold sequencing errors. In a few lines:
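A nanobody's polyreactivity label depends on the gate it was sorted from. Yeast display cells were stained with 10% biotinylated, detergent-solubilized Sf9 membrane reagent for 1 hour at 4 °C, enriched on streptavidin microbeads and sorted by FACS. The low and high (top ~1%) gates were set on anti-HA fluorescence for expression and streptavidin fluorescence for reagent binding.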
As to “QVQLVESGGGLVQAGGSLRLSCAASGFIFGIYAMGWYRQAPGKEREFVAAMTGSAGSTYYADSVKGRFTISRDNAKNTVYLQMNSLKPEDTAVYYCAAVLRTHRYGGYNYWGQGTQVTVSS”, the “polyreactivity (PSR sort gate)” value was “low polyreactivity”.

As to “QVQLVESGGGLVQAGGSLRLSCAASGFIFGIYAMGWYRQAPGKERELVAAISWRGDSTYYADSVKGRFTISRDNAKNTVYLQMNSLKPEDTAVYYCAAVYYKLVGWYSYRYGYWGQGTQVTVSS”, the “polyreactivity (PSR sort gate)” value was “low polyreactivity”.

Regarding “QVQLVESGGGLVQAGGSLRLSCAASGFIFGLNAMGWYRPAPGKERELVAAIRSASSTNYADSVKGRFTISRDNAKNTVYLQMNSVKPEDTAVYYCAAEYVTYQQGFWGYDYWGQGTEVTVSS”, the “polyreactivity (PSR sort gate)” value is “low polyreactivity”.

For the sequence “QVQLVESGGGLVQAGGSLRLSCAASGFIFGPNAMGWYIQAPGKERELVAAITWSSGRTYYADSVKGRFTISRDNAKNTVYLQMNSLKPEDTAVYYCAADFSRAVLRGNYWGQGTQVTVSS”, the “polyreactivity (PSR sort gate)” value is listed as “high polyreactivity”.

On to “QVQLVESGGGLVQAGGSLRLSCAASGFIFGPYAMGWYRQAPGKERELVASISWSGGRTYYADSVKGRFTISRDNAKNTVYLQMNSLKPEDTAVYYCAADLPVIRGYRSNRFGYWGQGTQVTVSS”, for which the “polyreactivity (PSR sort gate)” value is given as “high polyreactivity”.

For the sequence “QVQLVESGGGLVQAGGSLRLSCAASGFIFGQYAMGWSRQAPGKERELVAAISESGGRTYYADSVKGRFTISRDNAKNTVYLQMNSLKPEDTAVYYCAADKSKYRAFDYWGQGTQVTVSS”, the “polyreactivity (PSR sort gate)” value is “high polyreactivity”.

Turning to “QVQLVESGGGLVQAGGSLRLSCAASGFIFGQYAMGWSRQAPGKERELVAAISSVGTTNYADSVKGRFTISRDNAKNTVYLQMNSLKPEDTAVYYCNAPVFYYWDYSYFPYEVDYWGQGTQVTVSS”, the “polyreactivity (PSR sort gate)” value is recorded as “low polyreactivity”.

For “QVQLVESGGGLVQAGGSLRLSCAASGFIFGRNAMGWYRQAPGKERELVAGISSRGGRTYYADSVKGRFTISRDNAKNTVYLQMNSLKPEDTAVYYCAAAGLTDYVRYDYWGQGTQVTVSS”, the “polyreactivity (PSR sort gate)” value was “high polyreactivity”.

Consider “QVQLVESGGGLVQAGGSLRLSCAASGFIFGRYAMGWYRQAPGKERELVAAISKTGGRTYYADSVKGRFTISRDNAKNTVYLQMNSLKPEDTAVYYCAAVYKRGMDYWGQGTEVTVSS”, for which the “polyreactivity (PSR sort gate)” value is on record as “high polyreactivity”.

Regarding “QVQLVESGGGLVQAGGSLRLSCAASGFIFGRYAMGWYRQAPGKERELVAAISRSGGSTHYADSVKGRFTISRDNAKNTVYLQMISLKPEDTAVYYCAAVWPFDRSRMDYWGQGTQVTVSS”, the “polyreactivity (PSR sort gate)” value is listed as “high polyreactivity”.

In the case of “QVQLVESGGGLVQAGGSLRLSCAASGFIFGSNAMGWYRQAPGKERELVAAISRSGGSTYYADSVKGRFTISRDNAKNTVYLQMNSLKPEDTAVYYCNVDLWPFVYSWWSYDYWGQGTQVTVSS”, the “polyreactivity (PSR sort gate)” value was “high polyreactivity”.

As to “QVQLVESGGGLVQAGGSLRLSCAASGFIFGSNAMGWYRQAPGKERELVAAISRSGGSTYYADSVKGRFTISRDNAKNTVYLQMNSLKPEDTAVYYCNVVLWPFVYSWWSYDYWGQGTQVTVSS”, the “polyreactivity (PSR sort gate)” value is reported as “high polyreactivity”.

In the case of “QVQLVESGGGLVQAGGSLRLSCAASGFIFGSYAMGWYRQAPGKERELVAAISYRGGTTYYADSVKGRFTISRDNAKNTVYLQMNSLKPEDTAVYYCAADSPENRYNYWGQGTQVTLSS”, the “polyreactivity (PSR sort gate)” value is on record as “high polyreactivity”.

Regarding “QVQLVESGGGLVQAGGSLRLSCAASGFIFGTNAMGWYRQAPGKERELVAAITSRGGSTYYADSVKGRFTISRDNAKNTVYLQMNSLKPEDTAVYYCAADKPRSYYYWGQGTQVTVSS”, the “polyreactivity (PSR sort gate)” value is given as “high polyreactivity”.

On to “QVQLVESGGGLVQAGGSLRLSCAASGFIFGTYAMGWYRPAPGKERELVAAITSGGSTYYADSVKGRFTISRDNAKNTVYLQMNSLKPEDTAVYYCAKYHWRLSFSRYPYDYWGQGTQVTVSS”, for which the “polyreactivity (PSR sort gate)” value is reported as “high polyreactivity”.

Take “QVQLVESGGGLVQAGGSLRLSCAASGFIFGTYAMGWYRQAPGKEREFVAAINWGGGRTYYADSVKGRFTISRDNAKNTVYLQMNSLKPEDTAVYYCNKRLIYYRGTYYSRRFDYWGQGTQVTVSS”: the “polyreactivity (PSR sort gate)” value is recorded as “high polyreactivity”.

Consider “QVQLVESGGGLVQAGGSLRLSCAASGFIFGVNAMGWYRQAPGKERELVAAITSTGGRTYYADSVKGRFTISRDNAKNTVYLQMNSLKPEDTAVYYCNKRYRDQYGYDYWGQGTQVTVSS”, for which the “polyreactivity (PSR sort gate)” value is listed as “high polyreactivity”.

“QVQLVESGGGLVQAGGSLRLSCAASGFIFGVYAMGWYRQAPGKERELVAAITGRAASTYYADSVKGRFTISRDNAKNTVYLQMNSLKPEDTAVYYCAARKRYRPGERYEYWGQGTQVTVSS”: the “polyreactivity (PSR sort gate)” value is given as “high polyreactivity”.

For the sequence “QVQLVESGGGLVQAGGSLRLSCAASGFIFGVYAMGWYRQAPGKERELVARITYGGGSTYYADSVKGRFTISRDNAKNTVYLQMNSLKPEDTAVYYCAAASWSYPYYYWGQGTQVTVSS”, the “polyreactivity (PSR sort gate)” value is “high polyreactivity”.

With “QVQLVESGGGLVQAGGSLRLSCAASGFIFGVYAMGWYRQAPGNERELVAAISGSGGTTYYADSVKGRFTISRDNAKNTVYLQMNSQKPEDTAVYYCNAAYRVRYIVNYDYWGQGTQVTVSS”, the “polyreactivity (PSR sort gate)” value is “low polyreactivity”.

As to “QVQLVESGGGLVQAGGSLRLSCAASGFIFGVYDMGWYRQAPGKERELVAAIDSVGSTYYADSVKGRFTISRDNAKNTVYFQMNSLKPEDTAGYYCNAARSRLYYVKYYYWGQGTQVTVSS”, the “polyreactivity (PSR sort gate)” value was “low polyreactivity”.

As for “QVQLVESGGGLVQAGGSLRLSCAASGFIFGWNAMGWYRQAPGKEREFVAAITSSGTSTYYADSVKGRFTISRDNAKNTVYLQMNSLKPEDTAVYYCAADVIFNWLAYSTEYDYWGQGTQVTVSS”, the “polyreactivity (PSR sort gate)” value is given as “low polyreactivity”.

Take “QVQLVESGGGLVQAGGSLRLSCAASGFIFGWNAMGWYRQAPGKERELVAGISRGGRTYYADSVKGRFTISRDNAKNTVYLQMNSLKPEDTAVYYCNKRLYSSSAVDAYGYWGQGTQVTVSS”: the “polyreactivity (PSR sort gate)” value was “high polyreactivity”.

For the sequence “QVQLVESGGGLVQAGGSLRLSCAASGFIFGYNAMGWYRQAPGKERELVAAITRSGGRTYYADSVKGRFTISRDNAKNTVYLQMNSLKPEDTSVYYCAASRFATYPRWYDYWGQGTQVTVSS”, the “polyreactivity (PSR sort gate)” value is listed as “low polyreactivity”.

With “QVQLVESGGGLVQAGGSLRLSCAASGFIFGYNAMGWYRQAPGKERELVAAITWIGGTTYYADSVKGRFTISRDNAKNTVYLQMNSLKPEDTAVYYCARQRSYGRSSYSYGYDYWVQGTQVTVSS”, the “polyreactivity (PSR sort gate)” value is “high polyreactivity”.

Turning to “QVQLVESGGGLVQAGGSLRLSCAASGFIFGYYAMGCYTQAPGKERELVARSTSSGGSTYYADSVKGRFTISRDNAKTTVYLQMNSLKPEDTAVYYCAKSPRAPRYMPYGYWGQGSQVTVSS”, the “polyreactivity (PSR sort gate)” value is recorded as “high polyreactivity”.

Turning to “QVQLVESGGGLVQAGGSLRLSCAASGFIFGYYAMGWYRQAPGKEREFVAAITKRGGRTYYADSVKGRFTISRDNAKNTVYLQMNSLKPEDTAVYYCNKAIRQDRWVQEEDYWGQGTQVTVSS”, the “polyreactivity (PSR sort gate)” value was “high polyreactivity”.

“QVQLVESGGGLVQAGGSLRLSCAASGFIFGYYAMGWYRQAPGKERELVAAISGDAGRTYYADSVKGRFTISRDNAKNTVYLQMNSLKPEDTAVYYCADADTYKMDYWGQGTQVTVSS”: the “polyreactivity (PSR sort gate)” value was “low polyreactivity”.

On to “QVQLVESGGGLVQAGGSLRLSCAASGFIFGYYAMGWYRQAPGKERELVAAISKIGDSTYYADSVKGRFTISRDNAKNTVYLQMNSLKPEDTAVYYCNKVVRNYPRLYGHWGQGTQVTVSS”, for which the “polyreactivity (PSR sort gate)” value is “high polyreactivity”.

On to “QVQLVESGGGLVQAGGSLRLSCAASGFIFGYYAMGWYRQAPGKERELVAAISSRGGSTYYADSVKGRFTISRDNAKNTVYLQMNSLKPEDTAVYYCAVRRVSFRHKFGQYDYWGQGTQVTVSS”, for which the “polyreactivity (PSR sort gate)” value is “high polyreactivity”.

On to “QVQLVESGGGLVQAGGSLRLSCAASGFIFGYYTMGWYRQAPGKERELVAGISYSGGSTYYADSVKGRFTISRDNAKNTVYLQMNSLKPEDTAVYYCNRADYRASYSGQGSYDYWGQGTQVTVSS”, for which the “polyreactivity (PSR sort gate)” value is on record as “high polyreactivity”.

With “QVQLVESGGGLVQAGGSLRLSCAASGFIFIAYAMGWYRQAPGKERELVAAISKSGGNTYYADSVKGRFTISRDNAKNTVYLQMNSLKPEDTAVYYCATRPGYWRYEYWGQGTQVTVSS”, the “polyreactivity (PSR sort gate)” value is “high polyreactivity”.

With “QVQLVESGGGLVQAGGSLRLSCAASGFIFIYNAMGWFRQAPGKERELVAAISRTGARTYYADSVKGRFTISRDNAKNTVYLQMNSLKPEDTAVYYCAGGVRTRTEEYDYWGQGTKVTVSS”, the “polyreactivity (PSR sort gate)” value was “high polyreactivity”.

As to “QVQLVESGGGLVQAGGSLRLSCAASGFIFIYNVMGWYRPAPGKERELVAAINRGGSTKYADSVKGRFTISRDNAKNTVYLQMNSLKPEDTAVYYCAARYDGSRYHYDGYDYWGQGTQVTVSS”, the “polyreactivity (PSR sort gate)” value is “low polyreactivity”.

In the case of “QVQLVESGGGLVQAGGSLRLSCAASGFIFKAYAMGWYRHAPGKERELVAAITSSGGRTYDADSVKGRFTISRDNAKNTVYLQKNSLKPEDTAVYYCNARGVLRTSLYRYDYWGQGTQVTVSS”, the “polyreactivity (PSR sort gate)” value is listed as “high polyreactivity”.

On to “QVQLVESGGGLVQAGGSLRLSCAASGFIFKGYAMGWYRQSPGKERELVAVISTSGDRTYYADSVKGRFTISRDNAKNTVYLQMNSLKPEDTAVYYCAAKASPYGGRQKGYDYWGQGTQVTVSS”, for which the “polyreactivity (PSR sort gate)” value is on record as “high polyreactivity”.

For the sequence “QVQLVESGGGLVQAGGSLRLSCAASGFIFKRYAMGWYRQAPGKERELVAAITSGGSTHYADSVKGRFTISRDNAKNTVYLQMNSLKPEDTAVYYCAAVPRVNWSRYVYFWYDYWGQGTQVTVSS”, the “polyreactivity (PSR sort gate)” value is “high polyreactivity”.

Turning to “QVQLVESGGGLVQAGGSLRLSCAASGFIFKTYAMGWYRQAPGKERELVATITRRGGRTYYADSVKGRFTISRDNAKNTVYLQMNSLKPEDTAVYDCAADYALSSLPFDYWGQGTQVTVSS”, the “polyreactivity (PSR sort gate)” value was “high polyreactivity”.

Turning to “QVQLVESGGGLVQAGGSLRLSCAASGFIFKVNAMGWYRQAPGKERELFAAISRRGVTTYYADSVKGRFTISRDNAKNTVYLQMNSLKPEDTAVYYCNRARSYGDTDKLAILADDYWGQGTKVTVSS”, the “polyreactivity (PSR sort gate)” value was “high polyreactivity”.

Turning to “QVQLVESGGGLVQAGGSLRLSCAASGFIFLGNAMGWYRQAPGKERELVASISRGGSTNYADSVKGRFTISRDNAKNTVYLQMTSLKPEDTAVYYCAADLSDKFGYWGQGTQVTVSS”, the “polyreactivity (PSR sort gate)” value is recorded as “low polyreactivity”.
